Data: patent US20250222146A1, “Radiopharmaceuticals Targeting Somatostatin Receptor 2 and Uses Thereof” (RayzeBio, Inc., priority 2023, published 2025)
Square brackets hold non-standard residues; d marks the D form. dTrp(βS-Me) = C[C@@H](c1c[nH]c2ccccc12)[C@@H](N)C(=O)O; Ala(piperazin-1-yl) = N[C@@H](CN1CCNCC1)C(=O)O; NMeK = CN[C@@H](CCCCN)C(=O)O

Experiments:
[1] = biological target: SSTR2 (Homo sapiens, UniProt P30874); test: SSTR binding affinity by radioligand binding competition assay ([125I]-Tyr11-Somatostatin, membrane extracts); conditions: radioligand competition, [125I]-Tyr11-Somatostatin 0.1 nM, membrane extracts; Ki from IC50 by Cheng Prusoff; read-out: SSTR2 Ki
SSTR2, sequence (P30874 whole entry): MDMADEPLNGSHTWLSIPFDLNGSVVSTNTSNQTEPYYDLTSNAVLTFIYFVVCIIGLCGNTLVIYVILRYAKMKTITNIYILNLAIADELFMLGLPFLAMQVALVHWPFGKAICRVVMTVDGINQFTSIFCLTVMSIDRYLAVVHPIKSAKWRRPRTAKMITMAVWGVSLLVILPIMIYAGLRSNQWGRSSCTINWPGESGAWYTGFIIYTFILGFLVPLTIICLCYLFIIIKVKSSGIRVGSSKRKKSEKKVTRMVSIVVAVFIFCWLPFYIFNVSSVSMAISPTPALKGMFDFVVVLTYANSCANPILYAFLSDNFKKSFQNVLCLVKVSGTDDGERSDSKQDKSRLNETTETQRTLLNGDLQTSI

[2] = Peptide conjugate biodistribution measured by tissue PK (ICP-MS, % ID/g in kidney tissue at 2 h); type: in vivo; conditions: 2 h time point, mouse
Experimental: Macrocyclic peptides and conjugates described herein were tested for tissue distribution by measuring concentrations in tissues by MS using in vivo animal models. Peptide metal chelates were dosed to animals and tissues were collected at specific time points based off the peptide PK profile. The samples were then analyzed by MS and the results reported as % ID/g (% injected dose/gram). Radiopharmaceutical conjugates of the present disclosure have improved tissue distribution for radiopharmaceutical therapeutics.
Peptide metal chelate doses were suspended in phosphate-buffered saline (PBS) containing 0.1% Tween 80. An injection volume of 100 μL per mouse was used, and blood and tissue samples were collected, weighed, and stored frozen at-80° C. until analysis. Tissue samples were digested with concentrated nitric acid in a microwave digestion apparatus. The sample digest was diluted with internal standard and analyzed using inductively coupled plasma mass spectrometry (ICP-MS). ICP-MS is an elemental analysis technique used to measure elements by using argon plasma to convert the sample into ions that are then measured using the mass spectrometer. Calibration standards were used for quantification of element(s) of interest by constructing a multipoint standard curve covering the range of analyte concentrations anticipated in the samples (typical range is 500 ppt to 0.1 ppt). A single quadrupole instrument (iCAP RQ, Thermo Fisher) ICP-MS was coupled with a Teledyne CETAC autosampler and used for the sample analysis.
The % ID/g of conjugate in kidney tissue at the 2-hour time point (2 h) was quantified for various conjugates, and the results are shown in Table 10. Lower kidney tissue % ID/g values indicate lower distribution to the kidney after administration of the conjugate.

[3] = biological target: T1, somatostatin receptor type 2 (SSTR2) (UniProt P30874 1-369, limits assumed); test: radioligand competition; Ki bin per legend
T1 construct: also called SSTR protein
T1 sequence (P30874 whole entry): as above

Ki [3] [nM]	Molecule	Ki [1] [nM]	tissue uptake at 2 h [2] [%ID/g]
	C[C@@H](O)[C@@H]1NC(=O)[C@H](CCCCN)NC(=O)[C@H](Cc2c[nH]c3ccccc23)NC(=O)[C@H](Cc2ccc(O)cc2)NC(=O)[C@H](CCSCC(=O)NCCOCCOCCOCCNC(=O)CN2CCN3CCN4CCN(CC2)CC(=O)[O][Lu]([O]C(=O)C3)[O]C(=O)C4)N(C)C(=O)[C@H](Cc2ccccc2)NC1=O [RB-0005502]	< 1	9.4
< 1	XYWKTF (cyclo[NMe-Hcy(COCH2-Dah-DOTA-Lu);Tyr;D-Trp;NMe-Lys;Thr;Phe]) [RB-0003453]		
< 1	cyclo([NMeK]Y[dTrp(βS-Me)][Ala(piperazin-1-yl)]TF) (not fully specified (residue 1); printed as cyclo[NMe-Lys(DOTA-Lu),Tyr,(S-βMe)D-Trp,PipzaA,Thr,Phe]; also: Lu chelated in DOTA) [RB-0006176]		
< 1	XYWKVF (cyclo[NMe-Hcy(COCH2-Dah-DOTA-Lu);Tyr;D-Trp;Lys;Val;Phe]) [RB-0002676]		
